Data set [1] can be described thus: Hybridization-based ELISA, PMO concentration in tissues of severe SMA mice. The class given is in vivo. Conditions: mouse, sc, 40 mg/kg s.c. at PD0, PD7 mice. Here is the method: To determine the effects of DG9 peptide in increasing PMO uptake, we evaluated the biodistribution of unconjugated PMO and DG9-PMO in the peripheral and CNS tissues. We used a well-established hybridization-based ELISA designed specifically to detect the PMO to compare the concentration of DG9-PMO and unconjugated PMO in the tissues of treated PD7 mice ([51]).
ELISA was performed as described previously ([51], [69]). In brief, protein was extracted from frozen tissue sections (~20 μm) using RIPA buffer with cOmplete, Mini, EDTA-free protease inhibitor cocktail. The probes (Integrated DNA Technologies) were designed complementary to the PMO sequence with phosphorothioated backbones at the 5′ and 3′ ends. The 5′ and 3′ ends were labeled with digoxigenin and biotin, respectively. The tissue lysates (0.02 mg/mL protein concentration) were pretreated with 2.5 mg/mL trypsin containing 10 mM CaCl2 at 37°C overnight to digest the DG9 peptide. The probes were added to the samples and allowed to hybridize at 37°C for 30 minutes. Following the probe-PMO hybridization, the hybridized mixtures were added to Pierce NeutrAvidin Coated 96-Well Plates, Black (Thermo Fisher Scientific), to allow avidin-biotin interaction between the plate and the probes. The unhybridized probes were digested using micrococcal nuclease enzyme at 0.1 gel unit/μL (New England Biolabs). This was followed by the addition of an anti-digoxigenin antibody conjugated with ALP 1:5,000 (11093274910, Roche Applied Sciences). Attophos AP Fluorescent Substrate (Promega) was added to the PMO/DG9-PMO probes, and fluorescence was detected at 444 nm excitation and 555 nm emission by using a monochromator SpectraMax M3 plate reader (Molecular Devices).
(In general: An ELISA detects its analyte on a solid surface through an enzyme-linked reagent.)

In data set [2] the test system is severe SMA mouse model. Put plainly: Forelimb grip strength. The class given is in vivo. The conditions noted are these: 40 mg/kg s.c. at PD0, normalized to body weight. Here is the method: This improvement was further bolstered by the forelimb grip strength assessment at PD30 in the DG9-PMO–treated mice (Figure 1E and Supplemental Figure 2A). […] We evaluated the relationship between the forelimb data and the sex at PD30. […] We also performed a rotarod test PD30 for the 40 mg/kg groups to assess their overall muscle coordination and balance ([41]). We observed that although the unconjugated PMO–treated mice had reduced forelimb grip strength, they were able to balance themselves on the rotating beam similar to DG9-PMO–treated mice owing to their smaller size and weight (Supplemental Figure 2C). Since we had only 2 MOE mice in this experiment, they were not included in the statistics. Taken together, based on conclusive findings from these functional tests, systemic injection of DG9-PMO improves motor function and muscle strength in both neonatal and adult SMA mice.
This assay was conducted as described in Treat NMD protocol SMA_M.2.1.002 ([73]). In short, the mouse is placed on the wire mesh of an automated grip strength meter (Columbus Instruments) such that only the front paws are allowed to grip the metal grid. The mouse is steadily pulled with the help of its tail, such that it lets go of the grid completely. PD30 and PD60 mice were used. Each mouse underwent 3 trials.

The test system of the next data set is SMN2 (ISS-N1 intron 7). Put plainly: FL-SMN2 expression by RT-qPCR in mild SMA model (F0 mice). The format is in vivo, mouse. The conditions noted are these: s.c. at PD5; PD7 (40 mg/kg) and PD13 (80 mg/kg). From the text: To target the motor neurons in the CNS via systemic administration, AOs need to cross the BBB in patients with SMA. For this study, we used a milder SMA model (F0) (Smn^–/– SMN2^+/+) with 4 SMN2 copies obtained from Jackson Laboratory (JAX 005058) that are viable, are fertile, and have shortened, thick tails since severe SMA model mice have a median survival of only 8 days, making it difficult to evaluate the treatment efficacy when the BBB is mature. […] To determine the ability of DG9-PMO to reach the CNS, we subcutaneously injected 40 mg/kg or 80 mg/kg fluorescently tagged DG9-PMO into F0 mice at PD0 or PD5. […] We also performed an ELISA to examine the biodistribution of unconjugated PMO and DG9-PMO at PD7.
Frozen tissues harvested at PD7 were sectioned using a cryostat (Leica CM 1950) into 20 μm sections. […] The relative gene expression for FL-SMN2 over the deletion of SMN2 transcripts without exon 7 was normalized to the NT control samples and analyzed using the ΔΔCt method. The expression of denervation markers relative to 18S was normalized to the healthy heterozygous control samples collected at PD30 and analyzed using the ΔΔCt method.

Data set [3] relates to severe SMA mouse model. Description: Righting reflex test. The format is in vivo. The conditions noted are these: 40 mg/kg s.c. at PD0, compared with the other groups. From the text:
(§1) To evaluate the effects of systemic DG9-PMO treatment on muscle strength and the function of motor neurons, we used several functional tests and compared motor function in the treated and NT mice at various time points. We performed the hind limb suspension (HLS) assay and the righting reflex test during the early weeks of life. […] It should be noted that the results beyond PD12 are biased, as only the healthiest unconjugated PMO–, MOE-, and R6G-PMO–treated mice survived to these time points.
This spontaneous ability of the mice to right themselves up was tested from PD2 until the weaning stage PD20. The neonates were placed on their backs, and the time taken to reposition and place all 4 paws on the ground was noted. The recording time was a maximum of 60 seconds. Each neonate underwent 3 trials, with a resting period of at least 10 minutes between trials. The data are expressed as the mean time to complete the righting reflex test ± SEM.

Data set [4] relates to severe SMA mouse model. Description: Hind limb suspension (HLS) assay (tube test). The conditions noted are these: 40 mg/kg s.c. at PD0, PD2–PD12. The class given is in vivo.
Excerpt: as §1
This test was performed on neonatal mice PD2–PD12 as described in Treat NMD protocol SMA_M.2.2.001 ([72]). Briefly, neonatal mice were suspended on their hind limbs from a tube. They were scored based on the position of the hind limbs and their latency to fall was recorded with a 30-second cutoff. Each neonatal pup underwent 3 trials, with a 15-minute break between each trial. The average score was noted by the observer under a blinded test protocol.

Like-named read-outs stand apart in the source and are kept apart here.

`CC(=O)N[C@@H](Cc1ccc(O)cc1)C(=O)N[C@@H](C)C(=O)N[C@H](CCCNC(=N)N)C(=O)N[C@H](C(=O)N[C@@H](CCCNC(=N)N)C(=O)N[C@@H](CCCNC(=N)N)C(=O)N[C@H](CCCNC(=N)N)C(=O)NCC(=O)N1CCC[C@H]1C(=O)N[C@@H](CCCNC(=N)N)C(=O)NCC(=O)N[C@@H](Cc1ccc(O)cc1)C(=O)N[C@@H](C)C(=O)N[C@H](CCCNC(=N)N)C(=O)N[C@H](C(=O)N[C@@H](CCCNC(=N)N)C(=O)N[C@@H](CCCNC(=N)N)C(=O)N[C@H](CCCNC(=N)N)C(=O)NCC(=O)N1CCC[C@H]1C(=O)N[C@@H](CCCNC(=N)N)C(=O)N[C@H](CCCNC(=N)N)C(=O)N1C[C@@H](COP(=O)(N(C)C)N2C[C@@H](COP(=O)(N(C)C)N3C[C@@H](COP(=O)(N(C)C)N4C[C@@H](COP(=O)(N(C)C)N5C[C@@H](COP(=O)(N(C)C)N6C[C@@H](COP(=O)(N(C)C)N7C[C@@H](COP(=O)(N(C)C)N8C[C@@H](COP(=O)(N(C)C)N9C[C@@H](COP(=O)(N(C)C)N%10C[C@@H](COP(=O)(N(C)C)N%11C[C@@H](COP(=O)(N(C)C)N%12C[C@@H](COP(=O)(N(C)C)N%13C[C@@H](COP(=O)(N(C)C)N%14C[C@@H](COP(=O)(N(C)C)N%15C[C@@H](COP(=O)(N(C)C)N%16C[C@@H](COP(=O)(N(C)C)N%17C[C@@H](COP(=O)(N(C)C)N%18C[C@@H](COP(=O)(N(C)C)N%19CCC(C(N)=O)CC%19)O[C@@H](n%19cc(C)c(=O)[nH]c%19=O)C%18)O[C@@H](n%18ccc(N)nc%18=O)C%17)O[C@@H](n%17cnc%18c(N)ncnc%18%17)C%16)O[C@@H](n%16ccc(N)nc%16=O)C%15)O[C@@H](n%15cc(C)c(=O)[nH]c%15=O)C%14)O[C@@H](n%14cc(C)c(=O)[nH]c%14=O)C%13)O[C@@H](n%13cc(C)c(=O)[nH]c%13=O)C%12)O[C@@H](n%12ccc(N)nc%12=O)C%11)O[C@@H](n%11cnc%12c(N)ncnc%12%11)C%10)O[C@@H](n%10cc(C)c(=O)[nH]c%10=O)C9)O[C@@H](n9cnc%10c(N)ncnc%109)C8)O[C@@H](n8cnc9c(N)ncnc98)C7)O[C@@H](n7cc(C)c(=O)[nH]c7=O)C6)O[C@@H](n6cnc7c(=O)[nH]c(N)nc76)C5)O[C@@H](n5ccc(N)nc5=O)C4)O[C@@H](n4cc(C)c(=O)[nH]c4=O)C3)O[C@@H](n3cnc4c(=O)[nH]c(N)nc43)C2)O[C@@H](n2cnc3c(=O)[nH]c(N)nc32)C1)C(C)C)C(C)C` (stereo partly shown) [DG9-PMO]: the level at time molar at 7 days after dosing (PD7) in data set [1] (brain, n = 5, read-out: average AO detection, brain) was determined as 0.00836 µM; in data set [1] (heart, n = 4, read-out: average AO detection, heart), 0.00889 µM; in data set [1] (kidney, n = 6, read-out: average AO detection, kidney), 20 µM; in data set [1] (liver, n = 5, read-out: average AO detection, liver), 200 µM; in data set [1] (quadriceps muscle, n = 5, read-out: average AO detection, quadriceps muscle), 0.0122 µM; in data set [1] (spinal cord, n = 4, read-out: average AO detection, spinal cord) it was 0.0139 µM. For the same molecule, the “forelimb grip force at PD30” value in the data set on severe SMA mouse model [2] was “forelimb grip force comparable to the Hets and significantly higher than the unconjugated PMO– and MOE-treated mice”. Moreover, the “FL-SMN2 expression, mild SMA model (F0)” value in the data set on SMN2 (ISS-N1 intron 7) was “significant increase in the FL-SMN2 expression in both the CNS and peripheral tissues”. In the data set with severe SMA mouse model [3], the “time to right (righting reflex)” value is “significantly shorter time to right themselves on their paws between PD6 and PD10”. Further, the “hind limb strength (HLS score)” value with severe SMA mouse model [4] is listed as “hind limb strength comparable to the Hets at PD12”.

(Values after paper PMC10077475, “DG9-conjugated morpholino rescues phenotype in SMA mice by reaching the CNS via a subcutaneous administration” (JCI Insight, 2023).)
